Substrate in this data set: O[C@H]1[C@H](O)[C@@H](O)[C@H](O)[C@@H](O)[C@H]1O
The data set can be described thus: [3H]myo-inositol uptake by the myo-inositol transporter in PC12 cells. The settings on record: other: Lineweaver-Burke plots, [3H]myo-inositol 25 nM with increasing unlabeled myo-inositol, 37.0 °C. Type of data set: cell-based, rat. The procedure:
To determine if the effect of the fluoro-myo-inositol analogs might be mediated by the blockade of the myo-inositol transporter, which is responsible for uptake and accumulation of myo-inositol into the cell, the ability of these two compounds to block [^3 H]myo-inositol transport was studied directly.
The uptake of [^3 H]myo-inositol by the myo-inositol transporter was determined as follows:
PC12 cells were gently detached and maintained in a suspension culture in RPMI medium (both myo-inositol and serum free) at 37° C. ]^3 H]myo-inositol was added to this culture at a concentration of 1μCi/ml. Aliquots of this suspension were removed at the indicated time, diluted in 10 volumes of ice-cold PBS containing 10 mM unlabelled myo-inositol to stop the uptake process, centrifuged at 4° C. for 20 minutes at 50 xg. The cell pellet, which contained the transported [^3 H]myo-inositol, was dissolved in dilute NaOH and the radioactivity quantified by liquid scintillation counting.
The […] and Vmax of myoinositol were determined from LineweaverBurke plots
of the uptake of [^3 H]myoinositol (25 nM) in the presence of
increasing concentrations of unlabeled myoinositol in PC12 cells. The Ki
of the two fluoromyo-inositol analogs was determined by conducting the
uptake studies in the presence of a fixed concentration (1 mM) of each

For one protein, Km and Vmax results are on record in patent US4937390A, “Compound useful for the production of 3-deoxy-3-fluoro-myo-inositol” (University of Pittsburgh, priority 1989, dated 1990).

B1: myo-inositol transporter (Rattus norvegicus) (protein)
chain: MRAVLETADIAIVALYFVLVMCIGFFAMWKSNRSTVSGYFLAGRSMTWVAIGASLFVSNIGSEHFIGLAGSGAASGFAVGAWEFNALLLLQLLGWVFIPIYIRSGVYTMPEYLSKRFGGHRIQVYFAALSLLLYIFTKLSVDLYSGALFIQESLGWNLYVSVILLIGMTALLTVTGGLVAVIYTDTLQALLMIIGALTLMVISMMKVGGFEEVKRRYMLASPNVASILLTHNLSNTNSCMVHPKADALKMLRDPTDEDVPWPGFILGQTPASVWYWCADQVIVQRVLAAKNIAHAKGSTLMAGFLKLLPMFIIVVPGMISRILFVDDIACINPEHCMQVCGSRAGCSNIAYPRLVMELVPVGLRGLMMAVMIAALMSDLDSIFNSASTIFTLDVYKLLRNNASSRELMIVGRIFVAFMVVISIAWVPIIVEMQGGQMYLYIQEVADYLTPPVAALFLLAIFWKRCNEQGAFYGGMAGFVLGAIRLILAFTYRAPECDQPDNRPSFIKDIHYMYVATALFWITGLITVIVSLLTPPPTKDQIRTTTFWSKKTVVTKESCSQKDEPYKMQEKSILRCSENSEVVSHTIPNGKSEDSIKGLQPEDVNLLVTCREEGNPVASMGHSGAETPVDAYSNGQAALMGERAREKETESRSRYWKFIDWFCGFKSRSLSKRSLRDSMDEEAVCLQMLEETPRVRVILNIGLFAVCSLGIFMFVYFSL
notes: PC12 cells were gently detached and maintained in a suspension culture; endogenous in cells; host or cells: PC12 cells
With B1, the Km was 45 µM and the Vmax worked out at 2.27 nmol/mg/h.
